Results reported in patent US20080131497A1, “Formulations of DNase and Methods of Use Thereof” (priority 2006, published 2008).
Substitutions are numbered along the chain they refer to.

Key:
[1] = administered by inhalation, CF patients; cited from earlier work
[2] = system: colony forming units (CFU); details: administered by inhalation, CF patients; cited from earlier work
DNA [3] = assay: Enzymatic activity of human DNase forms, methyl green (MG) assay; type: biochemical
Text: Kurnick, Arch. Biochem. 29:41 (1950). […] Thus, by combining the purified deamidated DNases and the purified non-deamidated DNase of the present invention in various proportions, it is possible to prepare pharmaceutical compositions of human DNase having any desired specific activity in the range between the specific activities of the individual components, as may be optimal for treating particular disorders.

DNA [4] = assay: DNase viscosity assay (DNA digestion); type: biochemical; details: DNase 1 μg/mL, 2 mg/mL DNA, 1 mM Ca2+ and Mg2+
Description: At specific time points aliquots of samples were taken from the vials, diluted and analyzed for DNase activity. Enzymatic activity of DNase was determined by viscosity assay. DNA decomposition by DNase results in decrease of viscosity. DNase at 1 μg/mL normally can digest 2 mg/mL DNA resulting in decrease of viscosity from ˜25 cP (5 rpm) to 10 cP in ˜10 min (and to approaching 1 cP in longer time) in presence of 1 mM Ca^2+ and Mg^2+ ions. Kinetics of viscosity change due to degradation of DNA was measured by Brookfield D-II+ Pro viscosimeter at 5 rpm. Results showing increased stability for DNase when stored in the presence of empty liposomes or liposomal encapsulated antiinfective are presented in FIG. 2.
Activity was determined as a reciprocal value of a time to reduce viscosity in half, normalized to activity of standard DNase solution (A=T1/2^std/T1/2). The two curves in FIG. 3 illustrate an activity assay and how T1/2 is determined. The curves represent typical change in viscosity of DNA solution after DNase is added. v1 is viscosity at 1 minute, when the first measurement point is taken. T1/2 is the time interval after adding DNase required to reach viscosity level equal to half of v1.

DNA [5] = assay: Enzymatic activity of doubly deamidated DNase; type: biochemical; details: deamidated at Asn 7 and Asn 74

Which “improvement in FEV1” value [1] does the source give for `NC[C@H]1O[C@H](O[C@H]2[C@H](O)[C@@H](O[C@H]3O[C@H](CO)[C@@H](O)[C@H](N)[C@H]3O)[C@H](N)C[C@@H]2N)[C@H](N)C[C@@H]1O` [tobramycin, reference compound] here?
Its value is “approximately 10%”.

What about the “reduction in colony forming units (CFU)” value [2] of the same molecule?
The value was “about 2 log units”.

B1: deamidated human DNase: human DNase deamidated at the asparagine residue at position 74 of native mature human DNase (protein, UniProt P24855 23-282, looked up, variant N74D)
Deoxyribonuclease-1: LKIAAFNIQTFGETKMSNATLVSYIVQILSRYDIALVQEVRDSHLTAVGKLLDNLNQDAPDTYHYVVSEPLGRDSYKERYLFVYRPDQVSAVDSYYYDDGCEPCGNDTFNREPAIVRFFSRFTEVREFAIVPLHAAPGDAVAEIDALYDVYLDVQEKWGLEDVMLMGDFNAGCSYVRPSQWSSIRLWTSPTFQWLIPDSADTTATPTHCAYDRIVVAGMLLRGAVVPDSALPFNFQAAYGLSDQLAQAISDHYPVEVMLK
modifications: deamidation
notes: human DNase deamidated at the asparagine residue at position 74 of native mature human DNase
Which “enzymatic activity compared to non-deamidated human DNase” value (DNA [3]) does the source give for B1 here?
The value was “just over half”.

B2: Pulmozyme: highly purified, commercially available solution of DNase (from Genentech); recombinant human DNase (protein, UniProt P24855 23-282, looked up)
Deoxyribonuclease-1: B1 Deoxyribonuclease-1 with D74N
Which “improvement in FEV1” value [1] does the source give for B2 here?
Its value is “approximately 10%”.

B3: DNase: recombinant human deoxyribonuclease I, an enzyme which selectively cleaves DNA; standard in viscosity assay (protein, UniProt P24855 23-282, looked up)
Deoxyribonuclease-1: B1 Deoxyribonuclease-1 with D74N
With B3 as the molecule, how does the “time for decrease of viscosity from ~25 cP (5 rpm) to 10 cP” value (DNA [4]) read?
The value was ~10 min.

B4: doubly deamidated DNase: human DNase deamidated at asparagine position 7 in addition to position 74 (protein, UniProt P24855 23-282, looked up, variant N7D N74D)
Deoxyribonuclease-1: B1 Deoxyribonuclease-1 with N7D
modifications: deamidation
With B4 as the molecule, how does the enzymatic activity (DNA [5]) read?
The enzymatic activity was “enzymatically inactive”.
